# Experimental data: patent US20220162261A1 (published 2022)
# Read-outs that look alike come from different tables or passages of the source. Numbered stars: 1 amine (or outer) side, 2 acyl side, 3 side chain; on linkers, the order of the positions; unused ones are H or OH. Bridge positions count the residues as written; N and C are the ends. Square brackets hold non-standard residues; d marks the D form. Asp(OMe) = L-aspartic acid beta-methyl ester, COC(=O)C[C@H](N[*:1])C(=O)[*:2]; Phe(3,4-Cl2) = N[C@@H](Cc1ccc(Cl)c(Cl)c1)C(=O)O; Phe(4-tBu) = CC(C)(C)c1ccc(C[C@H](N)C(=O)O)cc1; Phe(2,4-Cl2) = N[C@@H](Cc1ccc(Cl)cc1Cl)C(=O)O; NMeR = CN[C@@H](CCCNC(=N)N)C(=O)O; β3hE = N[C@@H](CCC(=O)O)CC(=O)O; Pen = CC(C)(S)[C@H](N)C(=O)O; βAla = NCCC(=O)O
# Columns and labels:
# [1] = target: T1, α4β1 (R&D Systems #5668-A4) (UniProt P13612 34-970; P05556 21-728, limits assumed); assay: competition ELISA vs VCAM-1
# T1 construct: bought; also called soluble α4β1
# [2] = target: T2, human α4β7 integrin on cells (human, UniProt P13612 34-1032; P26010 20-798); assay: RPMI8866 cell adhesion to MAdCAM-1
# T2 construct: whole, on cells; also called α4β7 cell (Hu); RPMI8866 cells
# [3] = target: T3, rh integrin α4β7 (R&D Systems #5397-A30) (human, UniProt P13612 34-970; P26010 20-723); assay: competition ELISA vs MAdCAM-1
# T3 construct: bought; coated on a nickel coated plate; also called immobilized α4β7; immobilized α4β7 integrin protein
# [4] = target: T4, human α4β1 integrin on cells (human, UniProt P13612 34-1032; P05556 21-798); assay: Jurkat cell adhesion to VCAM-1
# T4 construct: whole, on cells; also called α4β1 cell; Jurkat cells
# [5] = target: T2, human α4β7 integrin on cells; assay: RPMI8866 cell adhesion to MAdCAM-1; remark: listed apart in the source
# [6] = target: T3, rh integrin α4β7 (R&D Systems #5397-A30); assay: competition ELISA vs MAdCAM-1; remark: listed apart in the source
# [7] = target: T2, human α4β7 integrin on cells; assay: PBMC memory T cell adhesion
Binder,IC50 [1],IC50 [2],IC50 [3],IC50 [4],IC50 [5],IC50 [6],IC50 [7]
"Ac-C[NMeR]SDTLCGEK-OH (disulfide 1-7 (inferred), also called peptide 199) [SEQ ID NO: 199]",> 100000 nM,4690 nM,58 nM,–,–,–,–
"Ac-CRSDTLC-NH2 (disulfide 1-7 (inferred), also called peptide 195) [SEQ ID NO: 195]",2880 nM,1220 nM,97 nM,–,–,–,–
"Ac-C[NMeR]SDTLCK-OH (disulfide 1-7 (inferred); also: dimer linked by PEG25, attachment not given here, also called peptide 200) [SEQ ID NO: 200]",16700 nM,96 nM,3 nM,> 100000 nM,–,–,–
cyclo([Pen][NMeR]SDTL[Pen]WE) (disulfide 1-7; SMILES CC(C)C[C@@H]1NC(=O)[C@H]([C@@H](C)O)NC(=O)[C@H](CC(=O)O)NC(=O)[C@H](CO)NC(=O)[C@H](CCCNC(=N)N)N(C)C(=O)[C@H]2NC(=O)[C@H](CCC(=O)O)NC(=O)[C@H](Cc3c[nH]c4ccccc34)NC(=O)[C@@H](NC1=O)C(C)(C)SSC2(C)C) [SEQ ID NO: 144],–,–,–,–,> 10000 nM,364 nM,–
Ac-C[NMeR]SDTL[Pen][dK]-NH2 (disulfide 1-7; SMILES CC(=O)N[C@H]1CSSC(C)(C)[C@@H](C(=O)N[C@H](CCCCN)C(N)=O)NC(=O)[C@H](CC(C)C)NC(=O)[C@H]([C@@H](C)O)NC(=O)[C@H](CC(=O)O)NC(=O)[C@H](CO)NC(=O)[C@H](CCCNC(=N)N)N(C)C1=O) [SEQ ID NO: 202],1620 nM,11000 nM,87 nM,> 100000 nM,–,–,–
"Ac-[Pen][NMeR]SDTL[Pen][Phe(4-tBu)][β3hE][dK]-NH2 (disulfide 1-7; not fully specified (residue 10); printed as (Ac Pen N-Me-R S D T L Pen F(4-tBu) b-H-E k NH2)2 IDA PEG4 Biotin, disulfide Pen-Pen; also: homodimer (…)2 IDA PEG4 Biotin via D-Lys10 NZ) [SEQ ID NO: 167]",–,–,–,–,≤ 10 nM,–,≤ 10 nM
"Ac-[Pen][NMeR]SDTL[Pen][Phe(2,4-Cl2)]E[dK]-NH2 (disulfide 1-7; not fully specified (residue 10); printed as (Ac Pen N-Me-R S D T L Pen F(2,4-diCl) E k NH2)2 DIG, disulfide Pen-Pen; also: dimer, two subunits joined by DIG linker) [SEQ ID NO: 42]",–,–,–,–,≤ 10 nM,≤ 10 nM,–
"Ac-CRSDTLCGEK-NH2 (disulfide 1-7 (inferred); also: dimer linked by PEG25, attachment not given here, also called peptide 197) [SEQ ID NO: 197]",964 nM,301 nM,36 nM,> 100000 nM,–,–,–
"Ac-C[NMeR]SDTLCGEK-OH (disulfide 1-7 (inferred); also: dimer linked by DIG, attachment not given here, also called peptide 201) [SEQ ID NO: 201]",1240 nM,28 nM,1 nM,–,–,–,–
"Ac-[Pen][NMeR]SDTL[Pen][Phe(3,4-Cl2)]E[dK]-NH2 (disulfide 1-7; not fully specified (residue 10); printed as (Ac Pen N-Me-R S D T L Pen F(3,4-diCl) E k NH2)2 DIG, disulfide Pen-Pen; also: dimer, two subunits joined by DIG linker) [SEQ ID NO: 43]",–,–,–,–,> 10 nM,≤ 10 nM,–
XRSDTLXWE (Cyclo [Pen N-Me-R S D T L Pen W e]; disulfide Pen-Pen) [SEQ ID NO: 145],–,–,–,–,> 10000 nM,504 nM,–
"Ac-[Pen]RSDTLC[dK]-NH2 (disulfide 1-7; SMILES CC(=O)N[C@@H]1C(=O)N[C@@H](CCCNC(=N)N)C(=O)N[C@@H](CO)C(=O)N[C@@H](CC(=O)O)C(=O)N[C@@H]([C@@H](C)O)C(=O)N[C@@H](CC(C)C)C(=O)N[C@H](C(=O)N[C@H](CCCCN)C(N)=O)CSSC1(C)C, also called peptide 206) [SEQ ID NO: 206]",–,–,97 nM,–,–,–,–
"Ac-[Pen][NMeR]S[Asp(OMe)]TL[Pen]WE[dK]-NH2 (disulfide 1-7; also: Biotine, site of attachment not given here) [SEQ ID NO: 69]",–,–,–,–,> 100 nM,> 10 nM,–
"Ac-[Pen][NMeR]S[Asp(OMe)]TL[Pen]WE[dK]-NH2 (disulfide 1-7; not fully specified (residue 10); printed as (Ac Pen N-Me-R S D(OMe) T L Pen W E k NH2)2 DIG, disulfide Pen-Pen; also: homodimer: two subunits linked by DIG via D-Lys10 side chain) [SEQ ID NO: 73]",–,–,–,–,≤ 10 nM,≤ 10 nM,–
"Ac-[Pen][NMeR]SDTL[Pen][Phe(4-tBu)][β3hE][dK]-NH2 (disulfide 1-7; not fully specified (residue 10); printed as (Ac Pen N-Me-R S D T L Pen F(4-tBu) b-H-E k NH2)2 IDA, disulfide Pen-Pen; also: homodimer (…)2 IDA via D-Lys10 NZ) [SEQ ID NO: 166]",–,–,–,–,≤ 10 nM,–,≤ 10 nM
"Ac-C[NMeR]SDTLCGE-NH2 (disulfide 1-7 (inferred), also called peptide 198) [SEQ ID NO: 198]",1290 nM,1120 nM,20 nM,> 100000 nM,–,–,–
H-[βAla][Pen][NMeR]SDTL[Pen]WE-NH2 (disulfide 2-8; SMILES CC(C)C[C@@H]1NC(=O)[C@H]([C@@H](C)O)NC(=O)[C@H](CC(=O)O)NC(=O)[C@H](CO)NC(=O)[C@H](CCCNC(=N)N)N(C)C(=O)[C@@H](NC(=O)CCN)C(C)(C)SSC(C)(C)[C@@H](C(=O)N[C@@H](Cc2c[nH]c3ccccc23)C(=O)N[C@@H](CCC(=O)O)C(N)=O)NC1=O) [SEQ ID NO: 52],–,–,–,–,> 100 nM,> 10 nM,–
Ac-[Pen][NMeR]SDTL[Pen][Phe(4-tBu)]-OH (disulfide 1-7; SMILES CC(=O)N[C@@H]1C(=O)N(C)[C@@H](CCCNC(=N)N)C(=O)N[C@@H](CO)C(=O)N[C@@H](CC(=O)O)C(=O)N[C@@H]([C@@H](C)O)C(=O)N[C@@H](CC(C)C)C(=O)N[C@H](C(=O)N[C@@H](Cc2ccc(C(C)(C)C)cc2)C(=O)O)C(C)(C)SSC1(C)C) [SEQ ID NO: 151],–,–,–,–,> 50 nM,> 10 nM,–
"Ac-C[NMeR]SDTL[Pen]E[dK]-NH2 (disulfide 1-7; also: homodimer via DIG linker on D-Lys9 side chains, also called peptide 205) [SEQ ID NO: 205]",444 nM,26 nM,2.4 nM,–,–,–,–
"Ac-[Pen]RSDTLC[dK]-NH2 (disulfide 1-7; also: homodimer via DIG linker on D-Lys8 side chains, also called peptide 207) [SEQ ID NO: 207]",–,49 nM,26 nM,–,–,–,–
Ac-[Pen][NMeR]SDTL[Pen][Phe(4-tBu)][β3hE]-NH2 (disulfide 1-7; SMILES CC(=O)N[C@@H]1C(=O)N(C)[C@@H](CCCNC(=N)N)C(=O)N[C@@H](CO)C(=O)N[C@@H](CC(=O)O)C(=O)N[C@@H]([C@@H](C)O)C(=O)N[C@@H](CC(C)C)C(=O)N[C@H](C(=O)N[C@@H](Cc2ccc(C(C)(C)C)cc2)C(=O)N[C@@H](CCC(=O)O)CC(N)=O)C(C)(C)SSC1(C)C) [SEQ ID NO: 165],–,–,–,–,> 10 nM,–,> 100 nM
"XRSDTLXWK (Ac Pen N-Me-R S D T L Pen W k NH2; disulfide Pen-Pen, also called peptide 208) [SEQ ID NO: 208]",–,412 nM,30.5 nM,–,–,–,–
"Ac-CRSDTLCGE-NH2 (disulfide 1-7 (inferred), also called peptide 194) [SEQ ID NO: 194]",2020 nM,590 nM,97 nM,–,–,–,–
"Ac-CRSDTLCGEK-NH2 (disulfide 1-7 (inferred), also called peptide 196) [SEQ ID NO: 196]",4810 nM,6660 nM,87 nM,> 100000 nM,–,–,–
